Patent publication US20260001928A1 (CORTERIA PHARMACEUTICALS, priority 2022, published 2026)
One block for each binder: values may come before it. *1 amine or outer side, *2 acyl side, *3 side chain or, on linkers, in order; H or OH if unused. Where no end group is shown, it is not given here. Side-chain parts run from the residue outwards. [ ]: non-standard residue; d: D form. The star is where a group is joined. C20 diacid = O=C(O)CCCCCCCCCCCCCCCCCCC(=O)*; γGlu = O=C(O)[C@H](CCC(=O)[*:2])N[*:1]; NMeI = CC[C@H](C)[C@H](NC)C(=O)O; Pentanoyl = CCCCC(=O)*; AEEA = NCCOCCOCC(=O)O; Aib = CC(C)(N)C(=O)O

What was measured:
[1] = target: T1, CRF1R (corticotropin-releasing factor receptor 1), on the CRF1R-overexpression CHO-K1 cell line clone 2 (UniProt P34998 24-415, limits assumed); assay: cell-based or functional assay
T1 sequence (looked up): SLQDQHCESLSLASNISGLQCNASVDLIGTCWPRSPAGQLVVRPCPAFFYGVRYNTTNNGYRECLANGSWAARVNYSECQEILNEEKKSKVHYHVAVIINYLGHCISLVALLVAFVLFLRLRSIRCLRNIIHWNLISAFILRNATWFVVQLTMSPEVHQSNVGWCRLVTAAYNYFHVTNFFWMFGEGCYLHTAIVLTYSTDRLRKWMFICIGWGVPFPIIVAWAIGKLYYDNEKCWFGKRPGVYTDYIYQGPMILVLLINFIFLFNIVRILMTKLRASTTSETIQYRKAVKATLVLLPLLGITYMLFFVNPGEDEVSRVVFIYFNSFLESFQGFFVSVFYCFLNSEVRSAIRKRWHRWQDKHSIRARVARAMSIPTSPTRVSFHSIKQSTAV

[2] = target: Rat CRF2 a (corticotropin-releasing factor receptor 2), on the A7R5 rat aortic smooth muscle cell line (rat, UniProt P47866 20-411); assay: cell-based or functional assay
Rat CRF2 a (corticotropin-releasing factor receptor 2), on the A7R5 rat aortic smooth muscle cell line, sequence (P47866 20-411): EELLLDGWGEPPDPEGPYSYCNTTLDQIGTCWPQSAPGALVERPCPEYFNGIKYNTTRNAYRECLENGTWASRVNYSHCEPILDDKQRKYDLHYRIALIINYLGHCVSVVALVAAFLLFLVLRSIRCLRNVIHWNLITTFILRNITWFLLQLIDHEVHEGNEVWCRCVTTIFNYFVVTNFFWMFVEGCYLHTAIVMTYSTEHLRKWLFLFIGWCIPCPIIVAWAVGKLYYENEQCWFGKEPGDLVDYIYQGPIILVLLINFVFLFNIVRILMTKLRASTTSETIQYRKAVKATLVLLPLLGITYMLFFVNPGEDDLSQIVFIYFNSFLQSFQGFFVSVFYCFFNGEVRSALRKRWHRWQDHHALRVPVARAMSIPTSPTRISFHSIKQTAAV

- EC50 [nM] (cAMP, CRF1R-overexpression CHO-K1 cells) [1]: > 250 nM
- Emax (% I) (cAMP, 100% = Sauvagine at 100 nM) [1]: 6 % I
- EC50 [nM] 0% HSA (cAMP, A7R5 rat aortic smooth muscle cells) [2]: 0.63 nM
B3: peptide of SEQ ID NO: 237 (peptide)
peptide: [NMeI]VLSLD[dV]PIKLK([AEEA-AEEA-γGlu-C20 diacid])KILLEQEKQKEQREQAETN[Aib]QILAQV-NH2
modifications: N-terminus assumed
SMILES: CC[C@H](C)[C@H](NC)C(=O)N[C@H](C(=O)N[C@@H](CC(C)C)C(=O)N[C@@H](CO)C(=O)N[C@@H](CC(C)C)C(=O)N[C@@H](CC(=O)O)C(=O)N[C@@H](C(=O)N1CCC[C@H]1C(=O)N[C@H](C(=O)N[C@@H](CCCCN)C(=O)N[C@@H](CC(C)C)C(=O)N[C@@H](CCCCNC(=O)COCCOCCNC(=O)COCCOCCNC(=O)CC[C@H](NC(=O)CCCCCCCCCCCCCCCCCCC(=O)O)C(=O)O)C(=O)N[C@@H](CCCCN)C(=O)N[C@H](C(=O)N[C@@H](CC(C)C)C(=O)N[C@@H](CC(C)C)C(=O)N[C@@H](CCC(=O)O)C(=O)N[C@@H](CCC(N)=O)C(=O)N[C@@H](CCC(=O)O)C(=O)N[C@@H](CCCCN)C(=O)N[C@@H](CCC(N)=O)C(=O)N[C@@H](CCCCN)C(=O)N[C@@H](CCC(=O)O)C(=O)N[C@@H](CCC(N)=O)C(=O)N[C@@H](CCCNC(=N)N)C(=O)N[C@@H](CCC(=O)O)C(=O)N[C@@H](CCC(N)=O)C(=O)N[C@@H](C)C(=O)N[C@@H](CCC(=O)O)C(=O)N[C@H](C(=O)N[C@@H](CC(N)=O)C(=O)NC(C)(C)C(=O)N[C@@H](CCC(N)=O)C(=O)N[C@H](C(=O)N[C@@H](CC(C)C)C(=O)N[C@@H](C)C(=O)N[C@@H](CCC(N)=O)C(=O)N[C@H](C(N)=O)C(C)C)[C@@H](C)CC)[C@@H](C)O)[C@@H](C)CC)[C@@H](C)CC)C(C)C)C(C)C

- EC50 [nM] (cAMP, CRF1R-overexpression CHO-K1 cells) [1]: > 250 nM
- Emax (% I) (cAMP, 100% = Sauvagine at 100 nM) [1]: 12 % I
- EC50 [nM] 0% HSA (cAMP, A7R5 rat aortic smooth muscle cells) [2]: 0.09 nM
B4: peptide of SEQ ID NO: 238 (peptide)
peptide: Ac-IVLSLD[dV]PIKLK([AEEA-AEEA-γGlu-C20 diacid])KILLEQEKQKKQREQAETN[Aib]QILAQV-NH2
SMILES: CC[C@H](C)[C@H](NC(C)=O)C(=O)N[C@H](C(=O)N[C@@H](CC(C)C)C(=O)N[C@@H](CO)C(=O)N[C@@H](CC(C)C)C(=O)N[C@@H](CC(=O)O)C(=O)N[C@@H](C(=O)N1CCC[C@H]1C(=O)N[C@H](C(=O)N[C@@H](CCCCN)C(=O)N[C@@H](CC(C)C)C(=O)N[C@@H](CCCCNC(=O)COCCOCCNC(=O)COCCOCCNC(=O)CC[C@H](NC(=O)CCCCCCCCCCCCCCCCCCC(=O)O)C(=O)O)C(=O)N[C@@H](CCCCN)C(=O)N[C@H](C(=O)N[C@@H](CC(C)C)C(=O)N[C@@H](CC(C)C)C(=O)N[C@@H](CCC(=O)O)C(=O)N[C@@H](CCC(N)=O)C(=O)N[C@@H](CCC(=O)O)C(=O)N[C@@H](CCCCN)C(=O)N[C@@H](CCC(N)=O)C(=O)N[C@@H](CCCCN)C(=O)N[C@@H](CCCCN)C(=O)N[C@@H](CCC(N)=O)C(=O)N[C@@H](CCCNC(=N)N)C(=O)N[C@@H](CCC(=O)O)C(=O)N[C@@H](CCC(N)=O)C(=O)N[C@@H](C)C(=O)N[C@@H](CCC(=O)O)C(=O)N[C@H](C(=O)N[C@@H](CC(N)=O)C(=O)NC(C)(C)C(=O)N[C@@H](CCC(N)=O)C(=O)N[C@H](C(=O)N[C@@H](CC(C)C)C(=O)N[C@@H](C)C(=O)N[C@@H](CCC(N)=O)C(=O)N[C@H](C(N)=O)C(C)C)[C@@H](C)CC)[C@@H](C)O)[C@@H](C)CC)[C@@H](C)CC)C(C)C)C(C)C

The next lines start with the binder.

B1: peptide of SEQ ID NO: 235 (peptide)
peptide: Pentanoyl-VLSLD[dV]PIKLK([AEEA-γGlu-C20 diacid])KILLEQEKQKKQREQAETN[Aib]QILAQV-NH2
SMILES: CCCCC(=O)N[C@H](C(=O)N[C@@H](CC(C)C)C(=O)N[C@@H](CO)C(=O)N[C@@H](CC(C)C)C(=O)N[C@@H](CC(=O)O)C(=O)N[C@@H](C(=O)N1CCC[C@H]1C(=O)N[C@H](C(=O)N[C@@H](CCCCN)C(=O)N[C@@H](CC(C)C)C(=O)N[C@@H](CCCCNC(=O)COCCOCCNC(=O)CC[C@H](NC(=O)CCCCCCCCCCCCCCCCCCC(=O)O)C(=O)O)C(=O)N[C@@H](CCCCN)C(=O)N[C@H](C(=O)N[C@@H](CC(C)C)C(=O)N[C@@H](CC(C)C)C(=O)N[C@@H](CCC(=O)O)C(=O)N[C@@H](CCC(N)=O)C(=O)N[C@@H](CCC(=O)O)C(=O)N[C@@H](CCCCN)C(=O)N[C@@H](CCC(N)=O)C(=O)N[C@@H](CCCCN)C(=O)N[C@@H](CCCCN)C(=O)N[C@@H](CCC(N)=O)C(=O)N[C@@H](CCCNC(=N)N)C(=O)N[C@@H](CCC(=O)O)C(=O)N[C@@H](CCC(N)=O)C(=O)N[C@@H](C)C(=O)N[C@@H](CCC(=O)O)C(=O)N[C@H](C(=O)N[C@@H](CC(N)=O)C(=O)NC(C)(C)C(=O)N[C@@H](CCC(N)=O)C(=O)N[C@H](C(=O)N[C@@H](CC(C)C)C(=O)N[C@@H](C)C(=O)N[C@@H](CCC(N)=O)C(=O)N[C@H](C(N)=O)C(C)C)[C@@H](C)CC)[C@@H](C)O)[C@@H](C)CC)[C@@H](C)CC)C(C)C)C(C)C
- EC50 [nM] (cAMP, CRF1R-overexpression CHO-K1 cells) [1]: > 250 nM
- Emax (% I) (cAMP, 100% = Sauvagine at 100 nM) [1]: 27 % I
- EC50 [nM] 0% HSA (cAMP, A7R5 rat aortic smooth muscle cells) [2]: 0.17 nM

B2: peptide of SEQ ID NO: 236 (peptide)
peptide: Ac-IVLSLD[dV]PIKLK([AEEA-AEEA-γGlu-C20 diacid])KILLEQEKQKEQREQAETN[Aib]QILAQV-NH2
SMILES: CC[C@H](C)[C@H](NC(C)=O)C(=O)N[C@H](C(=O)N[C@@H](CC(C)C)C(=O)N[C@@H](CO)C(=O)N[C@@H](CC(C)C)C(=O)N[C@@H](CC(=O)O)C(=O)N[C@@H](C(=O)N1CCC[C@H]1C(=O)N[C@H](C(=O)N[C@@H](CCCCN)C(=O)N[C@@H](CC(C)C)C(=O)N[C@@H](CCCCNC(=O)COCCOCCNC(=O)COCCOCCNC(=O)CC[C@H](NC(=O)CCCCCCCCCCCCCCCCCCC(=O)O)C(=O)O)C(=O)N[C@@H](CCCCN)C(=O)N[C@H](C(=O)N[C@@H](CC(C)C)C(=O)N[C@@H](CC(C)C)C(=O)N[C@@H](CCC(=O)O)C(=O)N[C@@H](CCC(N)=O)C(=O)N[C@@H](CCC(=O)O)C(=O)N[C@@H](CCCCN)C(=O)N[C@@H](CCC(N)=O)C(=O)N[C@@H](CCCCN)C(=O)N[C@@H](CCC(=O)O)C(=O)N[C@@H](CCC(N)=O)C(=O)N[C@@H](CCCNC(=N)N)C(=O)N[C@@H](CCC(=O)O)C(=O)N[C@@H](CCC(N)=O)C(=O)N[C@@H](C)C(=O)N[C@@H](CCC(=O)O)C(=O)N[C@H](C(=O)N[C@@H](CC(N)=O)C(=O)NC(C)(C)C(=O)N[C@@H](CCC(N)=O)C(=O)N[C@H](C(=O)N[C@@H](CC(C)C)C(=O)N[C@@H](C)C(=O)N[C@@H](CCC(N)=O)C(=O)N[C@H](C(N)=O)C(C)C)[C@@H](C)CC)[C@@H](C)O)[C@@H](C)CC)[C@@H](C)CC)C(C)C)C(C)C
- EC50 [nM] (cAMP, CRF1R-overexpression CHO-K1 cells) [1]: > 250 nM
- Emax (% I) (cAMP, 100% = Sauvagine at 100 nM) [1]: 7 % I
- EC50 [nM] 0% HSA (cAMP, A7R5 rat aortic smooth muscle cells) [2]: 2.81 nM
